In patent US20210070882A1 (Hoffmann-La Roche, published 2021):
Changes are numbered by the printed parent chain. Values joined by “and” are separate entries in the source; they are usually repeats but may differ in a detail not shown here. Equal values may be shown once. Read-outs that look alike come from different tables or passages of the source.

T1: human CD19 (human, UniProt P15391 20-556)
T1 sequence (looked up): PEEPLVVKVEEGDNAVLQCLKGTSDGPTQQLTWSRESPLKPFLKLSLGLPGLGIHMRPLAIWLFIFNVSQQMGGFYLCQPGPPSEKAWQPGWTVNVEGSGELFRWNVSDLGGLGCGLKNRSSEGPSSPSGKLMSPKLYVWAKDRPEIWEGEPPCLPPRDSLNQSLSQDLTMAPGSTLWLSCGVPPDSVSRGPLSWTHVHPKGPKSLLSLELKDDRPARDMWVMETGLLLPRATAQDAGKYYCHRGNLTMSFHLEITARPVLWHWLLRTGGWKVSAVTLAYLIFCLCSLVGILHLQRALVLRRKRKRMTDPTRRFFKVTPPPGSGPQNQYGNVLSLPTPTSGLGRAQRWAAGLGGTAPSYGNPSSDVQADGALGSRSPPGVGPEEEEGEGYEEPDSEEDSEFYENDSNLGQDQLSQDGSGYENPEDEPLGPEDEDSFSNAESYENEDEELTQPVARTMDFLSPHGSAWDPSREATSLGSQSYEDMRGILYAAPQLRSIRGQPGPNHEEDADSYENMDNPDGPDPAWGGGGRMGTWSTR

B1: Molecule G: 2+1 IgG CrossFab, inverted, with charge modifications (VH/VL exchange in CD19 binder, charge modification in CD3 binder, parental murine CD19 … (bispecific antibody)
chain 1: DAVMTQTPLSLPVSLGDQASISCRSSQSLENSNGNTYLNWYLQKPGQSPQLLIYRVSKRFSGVLDRFSGSGSGTDFTLKISRVEAEDLGVYFCLQLTHVPYTFGGGTKLEIKSSASTKGPSVFPLAPSSKSTSGGTAALGCLVKDYFPEPVTVSWNSGALTSGVHTFPAVLQSSGLYSLSSVVTVPSSSLGTQTYICNVNHKPSNTKVDKKVEPKSCDKTHTCPPCPAPEAAGGPSVFLFPPKPKDTLMISRTPEVTCVVVDVSHEDPEVKFNWYVDGVEVHNAKTKPREEQYNSTYRVVSVLTVLHQDWLNGKEYKCKVSNKALGAPIEKTISKAKGQPREPQVCTLPPSRDELTKNQVSLSCAVKGFYPSDIAVEWESNGQPENNYKTTPPVLDSDGSFFLVSKLTVDKSRWQQGNVFSCSVMHEALHNHYTQKSLSLSP
chain 2: not shown
chain 3: EVQLQQSGPELVKPGASVKMACKASGYTFTDYIMHWVKQKTGQGLEWIGYINPYNDGSKYTEKFNGKATLTSDKSSITAYMELSSLTSEDSAVYYCARGTYYYGSALFDYWGQGTTLTVSSASVAAPSVFIFPPSDEQLKSGTASVVCLLNNFYPREAKVQWKVDNALQSGNSQESVTEQDSKDSTYSLSSTLTLSKADYEKHKVYACEVTHQGLSSPVTKSFNRGEC
chain 4: QAVVTQEPSLTVSPGGTVTLTCGSSTGAVTTSNYANWVQEKPGQAFRGLIGGTNKRAPGTPARFSGSLLGGKAALTLSGAQPEDEAEYYCALWYSNLWVFGGGTKLTVLGQPKAAPSVTLFPPSSKKLQANKATLVCLISDFYPGAVTVAWKADSSPVKAGVETTTPSKQSNNKYAASSYLSLTPEQWKSHRSYSCQVTHEGSTVEKTVAPTECS
B2: Molecule E: 1+1 IgG CrossFab, inverted, without charge modifications (CH1/CL exchange in CD3 binder, parental murine CD19 binder 8B8) (bispecific antibody)
chain 1: not shown
chain 2: QAVVTQEPSLTVSPGGTVTLTCGSSTGAVTTSNYANWVQEKPGQAFRGLIGGTNKRAPGTPARFSGSLLGGKAALTLSGAQPEDEAEYYCALWYSNLWVFGGGTKLTVLSSASTKGPSVFPLAPSSKSTSGGTAALGCLVKDYFPEPVTVSWNSGALTSGVHTFPAVLQSSGLYSLSSVVTVPSSSLGTQTYICNVNHKPSNTKVDKKVEPKSC
chain 3: DAVMTQTPLSLPVSLGDQASISCRSSQSLENSNGNTYLNWYLQKPGQSPQLLIYRVSKRFSGVLDRFSGSGSGTDFTLKISRVEAEDLGVYFCLQLTHVPYTFGGGTKLEIKRTVAAPSVFIFPPSDEQLKSGTASVVCLLNNFYPREAKVQWKVDNALQSGNSQESVTEQDSKDSTYSLSSTLTLSKADYEKHKVYACEVTHQGLSSPVTKSFNRGEC
chain 4: DKTHTCPPCPAPEAAGGPSVFLFPPKPKDTLMISRTPEVTCVVVDVSHEDPEVKFNWYVDGVEVHNAKTKPREEQYNSTYRVVSVLTVLHQDWLNGKEYKCKVSNKALGAPIEKTISKAKGQPREPQVCTLPPSRDELTKNQVSLSCAVKGFYPSDIAVEWESNGQPENNYKTTPPVLDSDGSFFLVSKLTVDKSRWQQGNVFSCSVMHEALHNHYTQKSLSLSP
B3: Molecule F: 1+1 IgG CrossMab with charge modifications (VH/VL exchange in CD3 binder, charge modification in CD19 binder, parental murine CD19 binder 8B8) (bispecific antibody)
chain 1: EVQLQQSGPELVKPGASVKMACKASGYTFTDYIMHWVKQKTGQGLEWIGYINPYNDGSKYTEKFNGKATLTSDKSSITAYMELSSLTSEDSAVYYCARGTYYYGSALFDYWGQGTTLTVSSASTKGPSVFPLAPSSKSTSGGTAALGCLVEDYFPEPVTVSWNSGALTSGVHTFPAVLQSSGLYSLSSVVTVPSSSLGTQTYICNVNHKPSNTKVDEKVEPKSCDKTHTCPPCPAPEAAGGPSVFLFPPKPKDTLMISRTPEVTCVVVDVSHEDPEVKFNWYVDGVEVHNAKTKPREEQYNSTYRVVSVLTVLHQDWLNGKEYKCKVSNKALGAPIEKTISKAKGQPREPQVCTLPPSRDELTKNQVSLSCAVKGFYPSDIAVEWESNGQPENNYKTTPPVLDSDGSFFLVSKLTVDKSRWQQGNVFSCSVMHEALHNHYTQKSLSLSP
chain 2: EVQLLESGGGLVQPGGSLRLSCAASGFTFSTYAMNWVRQAPGKGLEWVSRIRSKYNNYATYYADSVKGRFTISRDDSKNTLYLQMNSLRAEDTAVYYCVRHGNFGNSYVSWFAYWGQGTLVTVSSASVAAPSVFIFPPSDEQLKSGTASVVCLLNNFYPREAKVQWKVDNALQSGNSQESVTEQDSKDSTYSLSSTLTLSKADYEKHKVYACEVTHQGLSSPVTKSFNRGEC
chain 3: B2 chain 3 with E128R, Q129K
chain 4: not shown
B4: Molecule A: 2+1 IgG CrossFab, inverted, with charge modifications (VH/VL exchange in CD3 binder, charge modification in CD19 binder, parental murine CD19 … (bispecific antibody)
chain 1: B3 chain 1
chain 2: not shown
chain 3: B3 chain 2
chain 4: B2 chain 3 with E128R, Q129K
B5: CD19_IgG_10C1 (antibody, V domains shown)
VH: EVQLQQSGPELVKPGASVKMSCKASGYTFTSYVMHWVKQKPGQGLEWIGYINPYNDGTKFNEKFKGKATLTSDKSSSTAYMELSSLTSEDSAVYYCTRGVYYYGSSQGDYWGQGTTLTVSS
VL: DAVMTQTPLSLPVSLGDQASISCRSSQSLENSNGNTYLNWYLQKPGQSPQLLIYRISNRFSGVPDRFNGSGSGTDFTLKISRVEAEDLGVYFCLQVTHVPWTFGGGTKLEIK
notes: also called CD19 IgG (clone 10C1); 10C1 as IgG

Key:
[1] = target: T1, human CD19; assay: cell-based or functional assay
[2] = target: T1, human CD19; assay: cell-based or functional assay; remark: listed apart in the source
[3] = target: T1, human CD19; assay: cell-based or functional assay; remark: listed apart in the source
[4] = target: T1, human CD19; assay: cell-based or functional assay; remark: listed apart in the source
[5] = target: T1, human CD19; assay: flow cytometry on CD19-expressing Raji cells
Experimental: The binding of CD19 IgGs and CD19 TCBs to human CD19- and CD3-expressing target cells was tested using CD19-expressing Burkitt's lymphoma cells (Raji) and CD3-expressing immortalized T lymphocyte line (Jurkat). Briefly, cells were harvested, counted, checked for viability and resuspended at 2×10⁶ cells/ml in FACS buffer (100 μl PBS 0.1% BSA). 100 μl of cell suspension (containing 0.2×10⁶ cells) were incubated in round-bottom 96-well plate for 30 min at 4° C. with increasing concentrations of the CD19 IgGs and CD19 TCBs (10 pM-200 nM), washed twice with cold PBS 0.1% BSA, re-incubated for further 30 min at 4° C. with the PE-conjugated AffiniPure F(ab′)2 Fragment goat anti-human IgG Fcg Fragment Specific secondary antibody (Jackson Immuno Research Lab PE #109-116-170), washed twice with cold PBS 0.1% BSA and immediately analyzed by FACS using a FACS Cantoll (Software FACS Diva) by gating live, DAPI-negative, cells.

Binder | T cell activation EC50 upon lysis of Z-138 cells, CD25/CD4 [1] | T cell activation EC50 upon lysis of Z-138 cells, CD25/CD8 [1] | T cell activation EC50 upon lysis of Z-138 cells, CD69/CD4 [1] | T cell activation EC50 upon lysis of Z-138 cells, CD69/CD8 [1] | T cell activation EC50 upon lysis of Z-138 cells, CD107/CD4 [1] | T cell activation EC50 upon lysis of Z-138 cells, CD107/CD8 [1] | Tumor cell lysis Z-138 cells (21 h), EC50 [2] | Tumor cell lysis Z-138 cells (21 h), EC50 (pM) [2] | T cell activation EC50 upon lysis of Z-138 cells, CD25/CD4 [3] | T cell activation EC50 upon lysis of Z-138 cells, CD25/CD8 [3] | T cell activation EC50 upon lysis of Z-138 cells, CD69/CD4 [3] | T cell activation EC50 upon lysis of Z-138 cells, CD69/CD8 [3] | T cell activation EC50 upon lysis of Z-138 cells, CD107/CD4 [3] | T cell activation EC50 upon lysis of Z-138 cells, CD107/CD8 [3] | Tumor cell lysis Z-138 cells (21 h), EC50 [4] | Tumor cell lysis Z-138 cells (21 h), EC50 (pM) [4] | EC50 [5]
B1 | 1.85 pM | 1.53 pM | ~0.75 pM | 0.7 pM | 1.14 pM | 1.13 pM | 0.57 ng/mL | 2.93 pM |  |  |  |  |  |  |  |  | 
B2 |  |  |  |  |  |  |  |  | 3.55 pM | 3.31 pM | 1.04 pM | 1.71 pM | 2.09 pM | 2.76 pM | 0.62 ng/mL | 4.2 pM | 
B3 |  |  |  |  |  |  |  |  | 10 pM | 6.5 pM | 3.97 pM | 2.59 pM | 7.54 pM | 4.02 pM | 7.85 ng/mL | 53.7 pM | 
B4 | ~4.58 pM | 2.87 pM | 1.41 pM | 1.37 pM | 2.34 pM | 2 pM | 0.92 ng/mL | ~4.7 pM |  |  |  |  |  |  |  |  | 
B5 |  |  |  |  |  |  |  |  |  |  |  |  |  |  |  |  | 5.2 nM and 0.763 µg/mL
